In patent publication US20050143287A1 one finds calcium mobilization (aequorin luminescence) in transiently transfected CHO cells data, which are given here for two substances.

Holding throughout (experiment): cell-based or functional assay
Assay [1] has as its target squirrel monkey prokineticin receptor 2 (PKR2) (squirrel monkey).
The target in assay [2] is rhesus monkey prokineticin receptor 1 (PKR1) (rhesus monkey).
For assay [3], the target named is chimpanzee prokineticin receptor 2 (PKR2) (chimpanzee (Pan troglodytes)).

In the case of “recombinant human PK1 (prokineticin 1) (from UniProt P58294 20-101) (ligand)”, in assay [1], the calcium mobilization (aequorin luminescence) in transiently transfected CHO cells worked out at 10 nM.
Consider “recombinant human PK2 (prokineticin 2) (from UniProt Q9HC23 28-129) (ligand)”, for which the calcium mobilization (aequorin luminescence) in transiently transfected CHO cells in assay [2] and in assay [3] was 10 nM in each case.
